Columns and labels:
[1] = substrate: CC(=O)Oc1ccc([N+](=O)[O-])cc1; test: purified protein; format: biochemical, Tetranychus urticae; settings: 0.1 M phosphate buffer pH 7.5, 30 °C, 1 µg enzyme, 1% acetone
[2] = substrate: CC(=O)Oc1cccc2ccccc12; test: purified protein; format: biochemical, Tetranychus urticae; settings: 0.1 M phosphate buffer pH 7.5, 1 µg enzyme, fast blue RR

B1: CCE58 (Tetranychus urticae) (protein)
chain: TISENVEPELTLSSGSIRGTSVDFRGVKVYQFLGIPFAEPPLNELRFQKPVSKKPWNGVLSVNKWGSACMQPVFPGYNTELHLNEDCLVLNVFTTEAAFQDKQNGKKHKLRPVMVWIHGGSFNYGSANTPDQHDGTPITGLKDVIIVSINYRLGSLGFLQLPEAGVPGNMGLWDQQLALKWVKDNIEHFGGDPNKVTIFGESAGSMSVSAHLVSPQSKGLFTNAIMQSGSIYDLDRWTQPGLVANFTSKIGCISDNYKSCLSNYRFGQFPEADRLTFWPTVDGEFLPHRAEELVSNHTVDPNINVLLGTNANEGAFMLLMKDMVTFHPLNPINLTIPHAKYIFGKLFGKTLIDFYSERYLASLSADDSDSIRLAVTQALGDSIFTCPTYATGRDLIASGVPNVYGYVQTQKPTHTLISVSGQAKWMSNIASHADTFPMVFGHPFNKLDKFKNEDVVLSFLMMDIWTKFAKDGKPPQISHQEWLPWNLSDPIPYPTMVLNSNKIGLIETKSAEFCAKNWPFPLENYYSMDSESGVYAEIE
notes: full-length MR-VL allele, signal peptide removed, codon-optimised, pPICZalphaA secretion in Pichia pastoris X-33, 6xHis tag, Ni-NTA purified, about 75 kDa on SDS-PAGE
Km [1]: 0.379 (±0.028) mM | Km [2]: 0.446 (±0.051) mM
